Target: T1, Hop1 CBR WT (Saccharomyces cerevisiae) (UniProt P20050)
T1 sequence: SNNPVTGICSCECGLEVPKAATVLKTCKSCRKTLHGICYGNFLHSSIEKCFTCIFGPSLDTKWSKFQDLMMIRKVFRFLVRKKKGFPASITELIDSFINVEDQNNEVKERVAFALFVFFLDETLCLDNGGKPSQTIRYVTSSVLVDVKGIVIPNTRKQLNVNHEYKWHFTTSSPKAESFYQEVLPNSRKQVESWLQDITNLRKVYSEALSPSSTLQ
Experiment: EMSA
Settings: EMSA: 20 mM Tris-HCl pH 7.5, 25 mM NaCl, 2 mM beta-mercaptoethanol, 10% glycerol; 50 nM nucleosome or DNA; 15 min room temperature; 6% TBE-acrylamide gel, 0.2X …

Sequence “TGGAGAATCCCGGTGCCGAGGCCGCTCAATTGGTCGTAGACAGCTCTAGCACCGCTTAAACGCACGTACGCGCTGTCCCCCGCGTTTTAACCGCCAAGGGGATTACTCCCTAGTCTCCAGGCACGTGTCAGATATATACATCCTGT (double strand) [Widom 601 mononucleosome (human histones)]” has a Kd of 470 nM.

From article PMC10907721
